Key:
[1] = target: P18-I10/H2-D^d, BirA-tagged and biotinylated (mouse | not stated); assay: SPR
[2] = target: P18-I10/H2-D^d (peptide-loaded MHC class I with β2m) (mouse | not stated); assay: AUC

Q: What does the source list for “B4.2.3 TCR, soluble disulfide-linked αβ heterodimer (extracellular portions)”?
A: Kd [1]: 540 nM; Kd [2]: 230 nM; stoichiometry N [2]: 1

— article PMC5440810
